Experimental data from publication PMC6579771.

Molecular target: S2-AAL, monovalent form of Aleuria aurantia lectin (Aleuria aurantia)
Experiment: microfluidic displacement assay with fluorescence detection; S2-AAL immobilised on the PDMS/glass microchannel (APTES, glutaraldehyde), blocked with BSA; labeled lactoferrin 0.15 mg/ml in PBS perfused, washed with PBS; then fucose in PBS or PBS alone at 0.1 ul/min; fluorescence at the …

% of initial fluorescence intensity left after 10 min perfusion with PBS only: 99%
Substance: Human lactoferrin isolated from breast milk, labeled with DyLight 488 (natural protein)
